Sequences and labels used below:
B1: LINE1-mini (parent)
chain: GGCAGAGCUCAACACAGCGUGGCAAAGUGGCUGUGGCUAGACUGCC

56 variants from the RNAGym collection of RNA variant scans (doi:10.7554/elife.90254) can be followed below.

Variants of B1 are the subject of the data set. Nature of the data set: self-cleavage, relative activity (ratio to wild type); higher = more cleavage; in vitro, sequencing; the parent is a self-cleaving ribozyme.
Take GGGAGAGCUCAACACAGCGUGGCAAAGUGGCUGUGGCUAUACUGCC [C3G G40U]: the self-cleavage worked out at 0.13.
For GGGAGAGCUCAACACAGCGUGGCAAAGUGGCUGUGGCUAAACUGCC [C3G G40A] the value was 0.39; for GGGAGAGCUCAACACAGCGUGGCAAAGUGGCUGUGGCUACACUGCC [C3G G40C], 0.1.
For GGUAGAGCUCCACACAGCGUGGCAAAGUGGCUGUGGCUAGACUGCC [C3U A11C] the value was 0.06.
Then GGUAGAGCUCUACACAGCGUGGCAAAGUGGCUGUGGCUAGACUGCC [C3U A11U], with 0.08; and GGUAGAGCUCGACACAGCGUGGCAAAGUGGCUGUGGCUAGACUGCC [C3U A11G], with 0.03; and GGGAGAGCUCAACACACCGUGGCAAAGUGGCUGUGGCUAGACUGCC [C3G G17C], with 0.15.
With GGGAGAGCUCAACACAUCGUGGCAAAGUGGCUGUGGCUAGACUGCC [C3G G17U], the self-cleavage was 0.15.
For GGGAGAGCUCAACACAACGUGGCAAAGUGGCUGUGGCUAGACUGCC [C3G G17A] the value was 0.14; for GGUAGAGCUCAACACAGCGUGGCAAGGUGGCUGUGGCUAGACUGCC [C3U A26G], 0.34.
Then GGUAGAGCUCAACACAGCGUGGCAAUGUGGCUGUGGCUAGACUGCC [C3U A26U], with 0.67; and GGUAGAGCUCAACACAGCGUGGCAACGUGGCUGUGGCUAGACUGCC [C3U A26C], with 0.35.
For GGUAGAGCUCACCACAGCGUGGCAAAGUGGCUGUGGCUAGACUGCC [C3U A12C] the value was 0.06; for GGUAGAGCUCAUCACAGCGUGGCAAAGUGGCUGUGGCUAGACUGCC [C3U A12U], 0.35.
As for GGUAGAGCUCAGCACAGCGUGGCAAAGUGGCUGUGGCUAGACUGCC [C3U A12G], the self-cleavage came to 0.06.
For GGGAGAGCUCAACACAGCGUGGCAAAAUGGCUGUGGCUAGACUGCC [C3G G27A] the value was 0.21.
Turning to GGGAGAGCUCAACACAGCGUGGCAAAUUGGCUGUGGCUAGACUGCC [C3G G27U], the self-cleavage was 0.32.
For GGGAGAGCUCAACACAGCGUGGCAAACUGGCUGUGGCUAGACUGCC [C3G G27C] the value was 0.13; for GGUAGAGCUCAACACAGAGUGGCAAAGUGGCUGUGGCUAGACUGCC [C3U C18A], 0.23; for GGUAGAGCUCAACACAGUGUGGCAAAGUGGCUGUGGCUAGACUGCC [C3U C18U], 0.42.
Then GGUAGAGCUCAACACAGGGUGGCAAAGUGGCUGUGGCUAGACUGCC [C3U C18G], with 0.09; and GGGAGAGCUCAACACAGCCUGGCAAAGUGGCUGUGGCUAGACUGCC [C3G G19C], with 0.16.
For GGGAGAGCUCAACACAGCUUGGCAAAGUGGCUGUGGCUAGACUGCC [C3G G19U] the value was 0.56; for GGGAGAGCUCAACACAGCAUGGCAAAGUGGCUGUGGCUAGACUGCC [C3G G19A], 0.59.
For GGUAGAGCUCAACACAGCGUGGCUAAGUGGCUGUGGCUAGACUGCC [C3U A24U], the self-cleavage is 0.73.
Then GGUAGAGCUCAACACAGCGUGGCCAAGUGGCUGUGGCUAGACUGCC [C3U A24C], with 0.37.
Then GGUAGAGCUCAACACAGCGUGGCGAAGUGGCUGUGGCUAGACUGCC [C3U A24G], with 0.24.
For GGGAGAGCUCAACACAGCGUGGCAAAGUGGCUGUGGCUAGACAGCC [C3G U43A] the value was 0.41; for GGGAGAGCUCAACACAGCGUGGCAAAGUGGCUGUGGCUAGACGGCC [C3G U43G], 0.21; for GGGAGAGCUCAACACAGCGUGGCAAAGUGGCUGUGGCUAGACCGCC [C3G U43C], 0.14.
Turning to GGGAGAGCUCAACACAGCGUGGCAAAGUGGCUGUGUCUAGACUGCC [C3G G36U], the self-cleavage was 0.2.
As for GGGAGAGCUCAACACAGCGUGGCAAAGUGGCUGUGACUAGACUGCC [C3G G36A], the self-cleavage was 0.74.
Then GGGAGAGCUCAACACAGCGUGGCAAAGUGGCUGUGCCUAGACUGCC [C3G G36C], with 0.66.
For GGGAGAGCUCAACACAGCGUGGCAAAGUGACUGUGGCUAGACUGCC [C3G G30A], the self-cleavage turned out to be 0.82.
For GGGAGAGCUCAACACAGCGUGGCAAAGUGUCUGUGGCUAGACUGCC [C3G G30U] the value was 0.71; for GGGAGAGCUCAACACAGCGUGGCAAAGUGCCUGUGGCUAGACUGCC [C3G G30C], 0.32.
Consider GGGAGAGCUCAACACAGCGUGGCAAAGGGGCUGUGGCUAGACUGCC [C3G U28G], for which the self-cleavage amounted to 0.19.
For GGGAGAGCUCAACACAGCGUGGCAAAGCGGCUGUGGCUAGACUGCC [C3G U28C] the value was 0.16.
For the variant GGGAGAGCUCAACACAGCGUGGCAAAGAGGCUGUGGCUAGACUGCC [C3G U28A], the self-cleavage is 0.22.
For GGUAGAGCUCAACACCGCGUGGCAAAGUGGCUGUGGCUAGACUGCC [C3U A16C] the value was 0.09.
GGUAGAGCUCAACACUGCGUGGCAAAGUGGCUGUGGCUAGACUGCC [C3U A16U]: the self-cleavage stood at 0.09.
Then GGUAGAGCUCAACACGGCGUGGCAAAGUGGCUGUGGCUAGACUGCC [C3U A16G], with 0.16.
For GGGAGAGCUCAACACAGCGUGGCAAAGUGGCGGUGGCUAGACUGCC [C3G U32G] the value was 0.11; for GGGAGAGCUCAACACAGCGUGGCAAAGUGGCCGUGGCUAGACUGCC [C3G U32C], 0.14.
Then GGGAGAGCUCAACACAGCGUGGCAAAGUGGCAGUGGCUAGACUGCC [C3G U32A], with 0.05; and GGGAGAGCUCAACACAGCGUGUCAAAGUGGCUGUGGCUAGACUGCC [C3G G22U], with 0.38.
For GGGAGAGCUCAACACAGCGUGCCAAAGUGGCUGUGGCUAGACUGCC [C3G G22C], the self-cleavage worked out at 0.26.
Then GGGAGAGCUCAACACAGCGUGACAAAGUGGCUGUGGCUAGACUGCC [C3G G22A], with 0.36; and GGGAGAGCUCAACACAGCGUGGCAAAGUGGCUAUGGCUAGACUGCC [C3G G33A], with 0.23; and GGGAGAGCUCAACACAGCGUGGCAAAGUGGCUCUGGCUAGACUGCC [C3G G33C], with 0.12.
Then GGGAGAGCUCAACACAGCGUGGCAAAGUGGCUUUGGCUAGACUGCC [C3G G33U], with 0.2.
For GGUAGAGCUCAACACAGCGUGGCAAAGUGGCUGUGGCUAGACUGCC [C3U], the self-cleavage stood at 0.48.
For GGUAGAGCUCAACACAGCGUGGCAAAGUGGCUGUGGCUAGUCUGCC [C3U A41U] the value was 0.56; for GGUAGAGCUCAACACAGCGUGGCAAAGUGGCUGUGGCUAGGCUGCC [C3U A41G], 0.12; for GGUAGAGCUCAACACAGCGUGGCAAAGUGGCUGUGGCUAGCCUGCC [C3U A41C], 0.09.
Then GGUAGAGCUCAACAAAGCGUGGCAAAGUGGCUGUGGCUAGACUGCC [C3U C15A], with 0.08.
